According to IntAct's records for PubMed 25312756:

B1: Ras-related protein Rab-27A (Homo sapiens), P51159 (parent)
chain: MSDGDYDYLIKFLALGDSGVGKTSVLYQYTDGKFNSKFITTVGIDFREKRVVYRASGPDGATGRGQRIHLQLWDTAGQERFRSLTTAFFRDAMGFLLLFDLTNEQSFLNVRNWISQLQMHAYCENPDIVLCGNKSDLEDQRVVKEEEAIALAEKYGIPYFETSAANGTNISQAIEMLLDLIMKRMERCVDKSWIPEGVVRSNGHASTDQLSEEKEKGACGC
partner: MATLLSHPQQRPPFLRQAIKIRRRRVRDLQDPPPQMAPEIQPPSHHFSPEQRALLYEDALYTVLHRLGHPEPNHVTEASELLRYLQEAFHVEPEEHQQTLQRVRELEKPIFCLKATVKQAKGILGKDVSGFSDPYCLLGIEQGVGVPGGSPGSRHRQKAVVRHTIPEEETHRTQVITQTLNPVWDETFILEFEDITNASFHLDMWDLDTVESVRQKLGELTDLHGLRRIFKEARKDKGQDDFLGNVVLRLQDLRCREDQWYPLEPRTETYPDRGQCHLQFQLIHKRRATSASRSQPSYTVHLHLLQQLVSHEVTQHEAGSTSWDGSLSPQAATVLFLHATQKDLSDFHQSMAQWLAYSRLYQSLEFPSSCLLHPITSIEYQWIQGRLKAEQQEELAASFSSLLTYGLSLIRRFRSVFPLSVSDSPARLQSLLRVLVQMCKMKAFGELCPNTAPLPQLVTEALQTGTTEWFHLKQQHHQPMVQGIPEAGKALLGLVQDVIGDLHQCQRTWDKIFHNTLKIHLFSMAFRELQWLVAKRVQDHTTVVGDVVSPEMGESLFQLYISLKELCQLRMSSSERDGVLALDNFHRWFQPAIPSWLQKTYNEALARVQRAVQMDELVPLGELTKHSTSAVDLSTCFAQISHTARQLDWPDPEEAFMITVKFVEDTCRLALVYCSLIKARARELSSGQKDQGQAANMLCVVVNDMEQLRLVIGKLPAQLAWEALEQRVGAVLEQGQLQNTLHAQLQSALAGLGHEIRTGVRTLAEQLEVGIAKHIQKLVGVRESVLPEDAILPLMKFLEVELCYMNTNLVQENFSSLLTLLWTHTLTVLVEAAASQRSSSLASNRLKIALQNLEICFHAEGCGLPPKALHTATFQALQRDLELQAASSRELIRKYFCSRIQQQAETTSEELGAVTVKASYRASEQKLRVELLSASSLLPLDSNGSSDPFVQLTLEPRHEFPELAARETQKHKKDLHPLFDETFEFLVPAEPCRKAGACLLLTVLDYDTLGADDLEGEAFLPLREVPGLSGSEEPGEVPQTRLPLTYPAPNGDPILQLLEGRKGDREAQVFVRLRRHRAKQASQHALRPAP
B2: Ras-related protein Rab-27A (Homo sapiens), P51159 (parent)
chain: B1 chain
partner: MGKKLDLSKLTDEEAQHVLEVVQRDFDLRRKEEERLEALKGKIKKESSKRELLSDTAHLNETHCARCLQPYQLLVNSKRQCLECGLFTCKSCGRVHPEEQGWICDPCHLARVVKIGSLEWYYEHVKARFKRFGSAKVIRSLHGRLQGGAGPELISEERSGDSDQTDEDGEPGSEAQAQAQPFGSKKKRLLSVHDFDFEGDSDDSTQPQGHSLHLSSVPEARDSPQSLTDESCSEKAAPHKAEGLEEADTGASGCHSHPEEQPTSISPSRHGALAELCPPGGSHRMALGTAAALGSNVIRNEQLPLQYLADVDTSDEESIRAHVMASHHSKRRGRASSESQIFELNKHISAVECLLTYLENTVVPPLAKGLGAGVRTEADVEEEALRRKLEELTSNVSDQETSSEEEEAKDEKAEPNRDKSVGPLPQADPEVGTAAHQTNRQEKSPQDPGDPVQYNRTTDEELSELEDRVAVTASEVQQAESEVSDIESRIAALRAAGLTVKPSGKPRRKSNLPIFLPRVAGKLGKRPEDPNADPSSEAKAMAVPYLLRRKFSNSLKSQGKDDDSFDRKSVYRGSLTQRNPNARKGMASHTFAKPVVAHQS

Variants of: B1
Details: with un13d_human UNC13D
S163R was tested, and the “effect of a mutation on the interaction” value was “decreasing interaction strength”.
In the case of A76V, the “effect of a mutation on the interaction” value is reported as “decreasing interaction strength”.
Y159C was tested, and the “effect of a mutation on the interaction” value was “disrupting interaction strength”.

Variants of: B2
Details: with melph_human MLPH
In the case of A76V, the “effect of a mutation on the interaction” value is reported as “with no effect”.
S163R was tested, and the “effect of a mutation on the interaction” value was “decreasing interaction strength”.
For Y159C, the “effect of a mutation on the interaction” value was “with no effect”.
